B1: ALDH8A1 (parent)
chain: FTGSQPTAERITQLSAPHCKKLSL
B2: EPB41L3 (parent)
chain: GSKFRYSGRTQAQTRRASALIDRP

Variants of: B1
Assay: protein stability index of a GFP-peptide fusion (GPS, HEK-293T) (PSI 1-6); higher = more stable
Details: c terminus: a fixed tail appended
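Further: lentivirally expressed fusions sorted by FACS into six bins by GFP to DsRed ratio, PSI derived from sequencing read proportions per bin multiplied by bin number.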

Protein stability index, by site and new letter:
L14: N 2.4 | R 2.37 | M 1.86 | D 3.04 | Y 2.39 | V 1.9 | E 3.18 | G 2.56 | Q 2.57 | W 2.2 | T 2.87 | C 1.79 | P 2.77 | S 2.76 | A 2.26 | K 2.73 | F 1.79 | H 2.58 | I 2.53
P17: N 2.55 | D 2.8 | Q 2.48 | T 2.24 | A 2.49 | I 2.38 | V 1.96 | R 2.49 | K 2.12 | H 2.34 | G 2.25 | S 2.18 | F 1.85 | E 2.77 | M 2.04 | W 2.46 | L 1.78 | C 2.13 | Y 2.05
T12: Y 2.69 | C 1.83 | M 2 | P 2.32 | W 3.11 | E 3.25 | I 1.51 | Q 2.36 | D 2.32 | K 2.3 | G 2.27 | N 2.25 | S 2.79 | R 2.89 | V 2.15 | F 2.86 | L 1.79 | A 2.21 | H 1.84
L22: I 2.76 | Q 2.68 | E 3.46 | A 2.85 | K 2.68 | D 2.67 | N 2.54 | Y 2.68 | M 2.14 | W 2.19 | R 2.23 | G 2.88 | F 1.92 | T 2.61 | V 1.91 | S 2.61 | P 2.26 | C 2.27 | H 2.29
Q13: F 2.94 | E 2.5 | N 2.2 | I 1.35 | D 2.61 | M 2.03 | C 2 | V 1.69 | S 2.12 | Y 1.97 | L 2.08 | K 2.48 | G 2.31 | H 2.24 | A 2.31 | T 2.3 | W 2.67 | R 1.91 | P 2.16
K21: Q 2.23 | G 2.01 | D 2.89 | A 2.56 | H 2.1 | V 2.22 | W 1.71 | S 2.22 | N 2.05 | L 1.84 | R 2.41 | I 1.71 | P 2.32 | M 2.45 | F 1.9 | E 2.65 | Y 2.1 | T 2.06 | C 1.59
S23: L 1.81 | P 2.33 | V 1.93 | D 2.69 | Y 2.66 | M 2.27 | W 1.85 | C 1.78 | E 2.56 | T 1.88 | I 2.15 | F 2.27 | H 2.02 | Q 2.35 | N 2.39 | G 1.97 | A 2.4 | K 2.03 | R 1.79
S15: D 2.18 | C 2.34 | L 2.87 | K 1.84 | H 1.85 | N 1.91 | M 2.13 | W 2.39 | A 2.39 | E 2.37 | F 3.03 | G 2.5 | R 1.71 | I 2.28 | P 2.32 | V 2.36 | T 2.25 | Q 2.09 | Y 3.69
H18: C 1.94 | Q 2.29 | V 3 | K 2.34 | E 1.78 | D 3.24 | T 2.31 | F 2.25 | N 2.11 | M 2.24 | A 2.05 | L 2.46 | I 2.55 | G 2.05 | R 2.55 | P 2.93 | S 2.74 | Y 2.14 | W 1.85
C19: T 2.45 | N 2.16 | P 2.06 | A 2.35 | D 2.73 | V 2.04 | I 1.66 | W 1.6 | S 1.96 | L 1.91 | E 2.79 | Y 1.68 | Q 2.79 | G 2.58 | K 2.75 | H 2.33 | F 2.91 | R 2.45 | M 1.96
R10: S 2.42 | H 2.3 | T 2.39 | V 1.63 | Q 2.17 | K 1.81 | Y 1.65 | D 2.31 | M 1.97 | A 2.31 | F 1.9 | P 2.7 | G 2.28 | W 1.93 | N 2.6 | C 1.94 | I 1.92 | L 2.11 | E 2.51
L24: A 2.6 | Q 2.9 | S 2.95 | Y 2.2 | R 2.52 | P 2.9 | I 2.04 | W 1.93 | K 2.5 | N 2.97 | D 3.23 | M 2.46 | V 2.38 | F 1.97 | H 2.52 | E 2.96 | G 2.67 | T 2.56 | C 2.52
A16: T 2.63 | V 2.27 | F 2.33 | N 2.58 | E 2.26 | S 2.17 | I 2.25 | R 2.43 | Q 2.1 | W 1.45 | G 2.5 | K 2.03 | C 1.55 | H 2.13 | Y 2.05 | P 2.39 | M 1.91 | D 2.52 | L 2.17
I11: S 2.22 | M 2.61 | P 3.32 | A 2.48 | N 2.4 | T 2.84 | Y 2.18 | F 2.9 | Q 2.49 | D 3.39 | L 2.15 | W 2.08 | G 2.09 | V 2.44 | H 2.96 | C 2.6 | K 1.93 | R 2.81 | E 2.73
K20: A 2.2 | I 1.61 | G 2.85 | Q 2.8 | N 2.53 | W 1.61 | M 1.84 | P 2.3 | D 2.57 | C 2.09 | S 2.26 | F 1.52 | Y 2.5 | V 1.93 | R 1.78 | H 1.88 | T 2.19 | E 2.75 | L 1.84

Variants of: B2
Assay: as above
Details: c terminus: a fixed tail appended

Protein stability index: each site, then its substitutions
G1: Q 2.74 | C 2.88 | K 3.33 | Y 1.85 | W 2.33 | S 2.33 | M 2.58 | F 2.12 | V 2.43 | R 3.17 | E 3.62 | A 3.02 | T 3.08 | H 3.03 | L 2.53 | I 2.53 | N 3.34 | D 3.06 | P 2.99
K3: E 2.19 | C 1.75 | A 2.02 | M 2.84 | D 2.5 | N 3.08 | G 1.94 | H 2.33 | L 2.92 | I 2.67 | F 2.34
S2: C 2.44 | G 3.31 | V 2.5 | K 3.56 | H 2.98 | P 2.6 | Q 2.77 | N 2.6 | E 3.98 | Y 2.68 | T 2.82 | I 2.74 | F 2.55 | M 2.27 | W 2.44 | L 2.33 | R 2.51 | A 2.66 | D 4.02
